B1: Serine/threonine-protein kinase RIM15 (Saccharomyces cerevisiae), P43565 (parent)
chain: MFNRSNTAGGSQAMKEGLGINKLSPISSNSNPSSLTSSNYEKYLQLATEKNPCMILELELDGKVRYGSPQWNTITGVADDSGSSPTYIADLILGSDQDKGVFQKATDMLLMNDDTSCTITFKIKAADYEGSAGCDDESTITTLEARGILIRDGHTQLPSHTMWIVKPRTNDWSDFYANEDAQDDMVIQLSDNCDDIDIQLPEEFAKTLGFGAKIFVQYLKRIRLEMIIDEFNLPLPKMELCRVCENFVPVWWLETHSQSCVCEHRTESLIQLLHDNLLEQQAILANFTKDSEYKGSQIQVRSNNFLNQVLDSLRELCQDAIDINPSEMVPDLYHSLSTFPQDNGNNNNNNNNNNNNNNALLDQFPIQKDTVSLNSYFQFSPRTNHNIQNVTSWQSRFFLNDDQDPGLALLIHDTLDLARKKVDAVLRLDNAMTYSLKIKNEVNNYVVQLIREQIEINKHAILTHPMNLRSSSIFHSPLPQIHSQQPEAENLIYSSSTPLQVQHDQCASFEAPSKSHLEPIPFPVSSIEETPTANDIRHPSPLPRSCSNTVMKLPTPRRKLDSNGLFSDAYLNADIIPNPSIESTISIDRDNNTNSRGSSMKQYGIGEATDSRTSNSERPSSSSSRLGIRSRSITPRQKIEYSHVDNDDRTNEMLSRDKDSLQPQPSVDTTITSSTQATTTGTKTNSNNSTNSVLPKLMTSISLTPRRGSPSFGNLASHSMQQTNSFKLIHDKSPISSPFTFSKDFLTPEQHPSNIARTDSINNAMLTSPNMPLSPLLLATNQTVKSPTPSIKDYDILKPISKGAYGSVYLARKKLTGDYFAIKVLRKSDMIAKNQVTNVKSERAIMMVQSDKPYVARLFASFQNKDNLFLVMEYLPGGDLATLIKMMGYLPDQWAKQYLTEIVVGVNDMHQNGIIHHDLKPENLLIDNAGHVKLTDFGLSRAGLIRRHKFVPHKSSLSISSTLPIDNPANNFTMNNNNSNHSQLSTPDSFTSDHKQYNRSKKSSLGQQYEHSEYSSTSNSHSMTPTPSTNTVVYPSYYRGKDRSHGSSNIDLPASLRRSESQLSFSLLDISRSSTPPLANPTNSNANNIMRRKSLTENKSFSNDLLSSDAIAATNTNINSNNNISLSPAPSDLALFYPDDSKQNKKFFGTPDYLAPETIEGKGEDNKQCDWWSVGCIFFELLLGYPPFHAETPDAVFKKILSGVIQWPEFKNEEEEREFLTPEAKDLIEKLLVVDPAKRLGAKGIQEIKDHPYFKNVDWDHVYDEEASFVPTIDNPEDTDYFDLRGAELQDFGDDIENDNANILFGKHGINTDVSELSAANLSPPLNHKNILSRKLSMSNTTNRSSNNSNSSVHDFGAHTPVNKLSIASVLESVPQETGYITPNGTGTTTTSAKNSPNLKNLSLAIPPHMRDRRSSKLNDSQTEFGSFNFRNLSALDKANKDAINRLKSEHFSEQPGVHRRTSSASLMGSSSDGSVSTPGSNASNTTSGGKLKIHKPTISGSPSTFGTFPKTFLRSDSFSTRSYSPERSISIDSSTLSRKGSIIGDNQQTTANSSDSPTMTKFKSPLSPANTTTVSSYFSRQRVLSKSFSQRTNSSDLSAEESDRLQAISRVNSLRNRRRSGRKSSSTSEIGYHMDVLVCEPIPIHRYRVTKDLENLGCTVVSVGAGDELVSRATSGVSFDLIMTALKLPKLGAIDIVQLLKQTNGANSTTPIVAITNYFQEAATSRVFDDVLEKPVKLDELKKLVAKYALKKSQEDEEHTILSDSDETH
partner: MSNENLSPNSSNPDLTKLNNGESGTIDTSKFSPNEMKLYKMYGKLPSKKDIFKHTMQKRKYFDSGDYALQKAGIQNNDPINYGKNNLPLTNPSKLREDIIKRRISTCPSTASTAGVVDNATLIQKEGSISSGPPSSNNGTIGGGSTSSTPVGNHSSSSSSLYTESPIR
B2: Serine/threonine-protein kinase RIM15 (Saccharomyces cerevisiae), P43565 (parent)
chain: B1 chain
B3: Serine/threonine-protein kinase RIM15 (Saccharomyces cerevisiae), P43565 (parent)
chain: B1 chain
partner: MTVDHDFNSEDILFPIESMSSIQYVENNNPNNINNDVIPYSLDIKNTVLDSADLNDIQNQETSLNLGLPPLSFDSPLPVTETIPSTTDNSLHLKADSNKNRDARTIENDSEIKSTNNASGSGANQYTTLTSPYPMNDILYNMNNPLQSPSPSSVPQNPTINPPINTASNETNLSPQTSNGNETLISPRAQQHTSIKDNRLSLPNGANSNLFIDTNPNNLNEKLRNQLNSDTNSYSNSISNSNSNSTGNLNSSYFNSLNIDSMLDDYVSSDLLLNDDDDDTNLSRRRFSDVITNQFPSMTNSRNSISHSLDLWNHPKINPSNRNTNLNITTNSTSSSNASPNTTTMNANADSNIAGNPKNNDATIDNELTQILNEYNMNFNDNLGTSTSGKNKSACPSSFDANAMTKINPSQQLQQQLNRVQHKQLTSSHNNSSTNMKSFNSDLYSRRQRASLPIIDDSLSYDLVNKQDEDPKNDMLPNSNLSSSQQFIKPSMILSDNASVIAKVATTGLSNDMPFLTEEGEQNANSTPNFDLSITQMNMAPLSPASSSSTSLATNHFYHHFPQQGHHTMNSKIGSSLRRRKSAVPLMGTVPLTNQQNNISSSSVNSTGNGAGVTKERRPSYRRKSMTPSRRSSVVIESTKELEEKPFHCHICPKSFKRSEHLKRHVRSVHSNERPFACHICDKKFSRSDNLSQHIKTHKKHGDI

Variants of B1 are the subject of one test. The note with it: with igo1_yeast IGO1, P53897.
For K823Y;C1176Y, the “effect of a mutation on the interaction” value is “disrupting interaction”.

The variants in another test derive from B2. The following applies: with hsf_yeast HSF1, P10961.
Chain of hsf_yeast HSF1, P10961 (P10961 whole entry): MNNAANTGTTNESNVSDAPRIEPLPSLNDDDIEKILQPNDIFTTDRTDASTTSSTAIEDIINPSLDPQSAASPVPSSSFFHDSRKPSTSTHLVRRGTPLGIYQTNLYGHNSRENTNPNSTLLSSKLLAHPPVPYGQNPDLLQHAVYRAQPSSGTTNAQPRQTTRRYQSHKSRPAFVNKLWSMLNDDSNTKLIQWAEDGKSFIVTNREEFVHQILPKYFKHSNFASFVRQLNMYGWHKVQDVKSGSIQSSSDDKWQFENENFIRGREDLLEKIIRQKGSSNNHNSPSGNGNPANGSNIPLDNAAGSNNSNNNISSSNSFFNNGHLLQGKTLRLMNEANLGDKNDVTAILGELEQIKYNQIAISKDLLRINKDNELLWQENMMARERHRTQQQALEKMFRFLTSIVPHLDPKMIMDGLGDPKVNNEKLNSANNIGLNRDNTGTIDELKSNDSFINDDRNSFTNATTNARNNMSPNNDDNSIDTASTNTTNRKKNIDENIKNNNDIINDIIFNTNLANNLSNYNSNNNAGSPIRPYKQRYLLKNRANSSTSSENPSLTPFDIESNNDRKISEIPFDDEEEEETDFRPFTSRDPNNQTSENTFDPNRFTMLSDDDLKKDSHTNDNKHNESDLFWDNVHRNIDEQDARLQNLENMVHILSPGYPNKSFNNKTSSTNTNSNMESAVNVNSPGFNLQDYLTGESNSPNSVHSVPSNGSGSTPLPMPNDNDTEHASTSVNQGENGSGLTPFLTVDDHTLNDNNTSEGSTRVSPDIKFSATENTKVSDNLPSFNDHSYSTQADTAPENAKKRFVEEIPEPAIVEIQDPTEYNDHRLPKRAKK
Turning to K823Y;C1176Y, the “effect of a mutation on the interaction” value is on record as “disrupting interaction”.

In a further test the parent is B3. The following applies: with msn2_yeast MSN2, P33748.
In the case of K823Y;C1176Y, the “effect of a mutation on the interaction” value is “disrupting interaction”.
